Measurements taken from the Immune Epitope Database (IEDB).

Tests used:
Assay in all cases: IEDB peptide-MHC binding, purified MHC/competitive/radioactivity; ≥ and ≤ were set here for values at or beyond the usual limits of such assays
Conditions in all cases: source organism: Bordetella pertussis
HLA-B*07:02 = target: HLA-B*07:02
HLA-B*35:01 = target: HLA-B*35:01
HLA-B*53:01 = target: HLA-B*53:01
HLA-B*44:03 = target: HLA-B*44:03
HLA-A*02:01 = target: HLA-A*02:01
HLA-B*57:01 = target: HLA-B*57:01

**Q.** Which IC50 (HLA-B*07:02) does the source give for PAVALPRPL here?
**A.** ≥ 77.5 µM

**Q.** For QAAPLSITL, which IC50 (HLA-B*35:01) is on record?
**A.** 4.46 µM

**Q.** And the IC50 (HLA-B*53:01)?
**A.** 4.49 µM

**Q.** Which IC50 (HLA-B*44:03) does the source give for YEAGFSLGS here?
**A.** 35.4 µM

**Q.** With LPSIPGTSI as the sequence, how does the IC50 (HLA-B*07:02) read?
**A.** 0.116 µM

**Q.** With NPGSLIAEV as the sequence, how does the IC50 (HLA-B*53:01) read?
**A.** 58.7 µM

**Q.** How did the IC50 (HLA-A*02:01) turn out when FQTYALTGI was run?
**A.** 1.32 µM

**Q.** RSRVRALAW was tested. Which IC50 (HLA-B*57:01) did it give?
**A.** 0.0121 µM

**Q.** How did the IC50 (HLA-B*57:01) turn out when VGGGEHGRW was run?
**A.** 57.9 µM

**Q.** How did the IC50 (HLA-B*07:02) turn out when TAFMSGRSL was run?
**A.** 56.1 µM

**Q.** With DGPPSRPTT as the sequence, how does the IC50 (HLA-B*44:03) read?
**A.** ≥ 70.1 µM

**Q.** TSKQDERNY was tested. Which IC50 (HLA-B*57:01) did it give?
**A.** ≥ 70.4 µM
